Experiment [1] addresses T1, purified recombinant His tagged human PD-L1 (human, UniProt Q9NZQ7 19-238).
T1 construct: not shown: His tag
Briefly: SPR KD; fold improvement, reference taken as parent mAb24.

Experiment [2] concerns the target T2, cyno PD-L1 expressed on cells (cynomolgus).
T2 construct: whole, on cells; also called cynomolgus PD-L1
Briefly: cell binding EC50 on HEK-cyno PD-L1; fold improvement, reference taken as parent mAb24.

Experiment [3] concerns the target T1, purified recombinant His tagged human …. Briefly: SPR (Carterra MX96), antibody on chip, His-tagged human PD-L1 injected.
The target of experiment [4] is T3, murine PD-L1 expressed on cells (murine, UniProt Q9EP73 19-290).
T3 construct: whole, on cells; also called muPDL1; mouse PD-L1
Briefly: cell binding titration, A20 cells expressing murine PD-L1.

For experiment [5], the target named is T2, cyno PD-L1 expressed on cells. Kind of experiment: cell binding titration, HEK cells expressing cyno PD-L1.
The target of experiment [6] is T4, human PD-L1 expressed on cells (human, UniProt Q9NZQ7 19-290).
T4 construct: also called huPDL1; human PD-L1 on HEK cells
Briefly: cell binding EC50 on HEK-human PD-L1; fold improvement, reference taken as parent mAb24.

Experiment [7] has as its target T4, human PD-L1 expressed on cells. Briefly: cell binding titration, HEK cells expressing human PD-L1.
The target in experiment [8] is T3, murine PD-L1 expressed on cells. Kind of experiment: cell binding EC50 on A20-murine PD-L1; fold improvement, reference taken as parent mAb24.
The target of experiment [9] is T2, cyno PD-L1 expressed on cells. Briefly: cell binding titration (MFI); binder and target taken from the legend paragraph 94 and paragraph 377 (parental clone mAb1, CHO cells expressing cynomolgus PD-L1); the panel itself prints 'mAb28' and 'CHO/CyPD-1'.
Experiment [10] has as its target T4, human PD-L1 expressed on cells. Kind of experiment: cell binding titration (MFI); binder and target taken from the legend paragraph 94 and paragraph 377 (parental clone mAb1, CHO cells expressing human PD-L1); the panel itself prints 'mAb28' and 'CHO/HuPD-1'.
In experiment [11] the target is T5, cyno PD-1 expressed on cells (cynomolgus).
T5 construct: whole, on cells; also called cyPD-1; cynomolgus PD-1
Kind of experiment: cell binding titration, CHO cells expressing cyno PD-1.

For experiment [12], the target named is T6, murine PD-1 expressed on cells (murine, UniProt Q02242 25-288).
T6 construct: whole, on cells; also called muPD-1; mouse PD-1
T6 sequence (looked up): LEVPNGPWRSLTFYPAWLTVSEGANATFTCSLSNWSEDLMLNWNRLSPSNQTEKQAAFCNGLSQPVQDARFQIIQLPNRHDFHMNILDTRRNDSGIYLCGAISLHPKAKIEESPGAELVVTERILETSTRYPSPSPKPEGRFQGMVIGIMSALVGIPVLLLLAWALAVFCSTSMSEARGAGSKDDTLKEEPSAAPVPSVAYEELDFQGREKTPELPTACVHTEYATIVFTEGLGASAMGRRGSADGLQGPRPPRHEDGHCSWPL
Kind of experiment: cell binding titration (MFI) on CHO cells expressing mouse PD-1, panel titled 'Cell Binding: CHO/MsPD-1'.

For experiment [13], the target named is T5, cyno PD-1 expressed on cells. Kind of experiment: cell binding EC50 on CHO-cyno PD-1; fold improvement over parent mAb25.
For experiment [14], the target named is T7, human PD-1 expressed on cells (human, UniProt Q15116 25-288).
T7 construct: also called huPD-1; CHO cells expressing human PD-1
Briefly: cell binding titration, CHO cells expressing human PD-1.

Experiment [15] concerns the target T6, murine PD-1 expressed on cells. Kind of experiment: cell binding titration, CHO cells expressing murine PD-1.
Experiment [16] concerns the target T8, purified recombinant His tagged human PD-1 (human, UniProt Q15116 25-170).
T8 construct: not shown: His tag
Kind of experiment: SPR KD; fold improvement over parent mAb25.

In experiment [17] the target is T7, human PD-1 expressed on cells. Briefly: cell binding titration (MFI) on CHO cells expressing human PD-1, panel titled 'Cell Binding: CHO/HuPD-1'.
For experiment [18], the target named is T8, purified recombinant His tagged human …. Briefly: SPR (Carterra MX96), antibody on chip, His-tagged human PD-1 injected.
In experiment [19] the target is T5, cyno PD-1 expressed on cells. Briefly: cell binding titration (MFI) on CHO cells expressing cynomolgus PD-1, panel titled 'Cell Binding: CHO/CyPD-1'.
The target in experiment [20] is T7, human PD-1 expressed on cells. Briefly: cell binding EC50 on CHO-human PD-1; fold improvement over parent mAb25.

Substitutions are numbered along the chain they refer to.

T4 sequence (Q9NZQ7 19-290 limits assumed): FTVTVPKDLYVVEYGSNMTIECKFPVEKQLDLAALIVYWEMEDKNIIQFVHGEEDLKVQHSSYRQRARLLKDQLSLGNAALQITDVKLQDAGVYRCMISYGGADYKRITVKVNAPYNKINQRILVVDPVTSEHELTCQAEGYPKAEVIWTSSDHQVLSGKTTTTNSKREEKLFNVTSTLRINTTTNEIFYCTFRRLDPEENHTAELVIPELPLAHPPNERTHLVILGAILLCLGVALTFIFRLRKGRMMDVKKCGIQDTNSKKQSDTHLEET
T1 sequence (Q9NZQ7 19-238 limits assumed): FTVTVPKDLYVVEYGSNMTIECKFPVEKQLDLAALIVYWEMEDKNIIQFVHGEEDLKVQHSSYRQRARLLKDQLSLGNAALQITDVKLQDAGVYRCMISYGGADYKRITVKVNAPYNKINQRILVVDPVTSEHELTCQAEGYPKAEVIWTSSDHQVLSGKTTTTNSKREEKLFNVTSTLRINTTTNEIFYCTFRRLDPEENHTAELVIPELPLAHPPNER
T3 sequence (Q9EP73 19-290): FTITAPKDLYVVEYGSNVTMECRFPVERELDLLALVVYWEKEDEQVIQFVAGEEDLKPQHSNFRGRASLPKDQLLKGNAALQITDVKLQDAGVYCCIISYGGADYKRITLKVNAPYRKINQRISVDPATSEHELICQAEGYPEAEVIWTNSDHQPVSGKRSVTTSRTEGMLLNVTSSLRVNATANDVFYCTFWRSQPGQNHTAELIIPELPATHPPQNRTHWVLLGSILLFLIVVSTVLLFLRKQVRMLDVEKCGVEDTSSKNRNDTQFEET
T7 sequence (Q15116 25-288 limits assumed): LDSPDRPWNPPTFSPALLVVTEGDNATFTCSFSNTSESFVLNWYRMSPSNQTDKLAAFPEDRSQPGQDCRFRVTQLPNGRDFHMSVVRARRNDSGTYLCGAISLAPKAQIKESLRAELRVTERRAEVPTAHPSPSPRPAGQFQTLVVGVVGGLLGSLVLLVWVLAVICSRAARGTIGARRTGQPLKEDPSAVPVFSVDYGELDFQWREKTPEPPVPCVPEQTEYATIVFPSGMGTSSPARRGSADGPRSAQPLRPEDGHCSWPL
T8 sequence (Q15116 25-170 limits assumed): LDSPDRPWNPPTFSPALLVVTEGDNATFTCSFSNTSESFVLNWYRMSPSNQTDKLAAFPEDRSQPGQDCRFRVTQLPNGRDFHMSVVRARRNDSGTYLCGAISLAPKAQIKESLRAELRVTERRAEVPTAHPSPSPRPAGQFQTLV

B1: mAb8 (antibody, V domains shown)
VH: QVQLVQSGAEVKKPGSSVKVSCKASGGTFSSYAINWVRQAPGQGLEWMGGIIPVFGTATYAQKFQGRVTITADESTSTAYMELSSLRSEDTAVYYCARLKFELKDAFDIWGQGTLVTVSS
VL: not shown
With B1, the “Fold Improvement” value was determined as 1.2 fold in [1] and 3.42 fold in experiment [2]. Moreover, in [3], the equilibrium dissociation constant (Kd) (usually the free concentration of one partner at which half of the binding sites on the other are occupied at equilibrium, for simple one-to-one binding) was 3.7 nM. In [4], the binding result is “no binding”. Moreover, in experiment [5], the EC50 (usually the concentration needed to bring the measured effect to its halfway point) worked out at 0.08 nM.

B2: mAb10 (antibody, V domains shown)
VH: B1 VH with F101N
VL: not shown
Turning to B2, the “Fold Improvement” value in experiment [6] came to 3.2 fold; in [1], 0.7 fold; in experiment [2] it was 3.05 fold. Also, the Kd in [3] was 6.3 nM. Also, the 50% effective concentration (EC50) is 0.04 nM in experiment [7] and 0.09 nM in experiment [5]. Moreover, the binding result in experiment [4] was “no binding”.

B3: mAb6 (antibody, V domains shown)
VH: B1 VH with V54I, T57I, T59N, F101G
VL: not shown
With B3, the “Fold Improvement” value in [6] was 1.1 fold; in experiment [1], 0.1 fold; in [2] it was 0.61 fold. Besides, the Kd in [3] was determined as 35.9 nM. Besides, the EC50 was found to be 0.13 nM in experiment [7] and 0.47 nM in experiment [5]. Besides, the binding result in [4] was “no binding”.

B4: mAb20 (antibody, V domains shown)
VH: B1 VH with V54I, T57K, L99R, F101G
VL: not shown
Consider B4, for which the “Fold Improvement” value is 1 fold in experiment [6], 0.1 fold in experiment [1], 2.31 fold in experiment [2] and 1.47 fold in experiment [8]. In experiment [3], the dissociation constant Kd amounted to 53.9 nM. The figures for the EC50 in experiment [7], in experiment [4] and in experiment [5] were 0.13 nM, 2.66 nM and 0.12 nM, respectively.

B5: mAb22 (antibody, V domains shown)
VH: B1 VH with F101G, L115M
VL: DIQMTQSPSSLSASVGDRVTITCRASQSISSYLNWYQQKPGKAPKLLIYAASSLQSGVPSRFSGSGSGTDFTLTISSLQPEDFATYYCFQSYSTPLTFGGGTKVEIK
Regarding B5, the “Fold Improvement” value in experiment [6] worked out at 0.8 fold; in experiment [1], 1.8 fold; in experiment [2] it was 0.89 fold. In addition, the equilibrium dissociation constant (Kd) in [3] came to 2.5 nM. Moreover, the EC50 came out at 0.18 nM in [7] and 0.32 nM in [5]. Moreover, in experiment [4], the binding result is “no binding”.

B6: mAb2 (antibody, V domains shown)
VH: B1 VH with F101G, L115M
VL: not shown
As to B6, the “Fold Improvement” value was 2.2 fold in [6], 2 fold in [1], 3.76 fold in experiment [2] and 1.96 fold in [8]. In [3], the dissociation constant (Kd) is 2.2 nM. Also, the EC50 in experiment [7] is 0.06 nM; in [4] it was 2 nM; in experiment [5], 0.08 nM.

B7: mAb5 (antibody, V domains shown)
VH: B1 VH with I34F, N35S, F101G
VL: not shown
Regarding B7, the “Fold Improvement” value in experiment [6] was 1.5 fold; in experiment [1], 0.2 fold; in [2], 0.74 fold. The equilibrium dissociation constant (Kd) in experiment [3] worked out at 27.1 nM. Also, the half-maximal effective concentration (EC50) was determined as 0.09 nM in experiment [7] and 0.39 nM in experiment [5]. The binding result in experiment [4] was “no binding”.

B8: mAb18 (antibody, V domains shown)
VH: B1 VH with V54I, F55L, L99R, F101G
VL: not shown
Consider B8, for which the “Fold Improvement” value in experiment [6] stood at 0.4 fold; in [2] it was 4.96 fold; in experiment [8], 4.67 fold. Further, the equilibrium dissociation constant (Kd) in experiment [3] was determined as 527 nM. The results for the concentration for a half-maximal effect (EC50) in experiment [7], in experiment [4] and in experiment [5] were 0.38 nM, 0.84 nM and 0.06 nM, respectively.

B9: mAb9 (antibody, V domains shown)
VH: B1 VH with F101G, I109E
VL: not shown
B9: the results for the “Fold Improvement” value in experiment [6], in [1] and in experiment [2] were 2.5 fold, 0.8 fold and 4.15 fold, respectively. Moreover, the dissociation constant (Kd) in experiment [3] amounted to 5.4 nM. The figures for the EC50 in experiment [7] and in experiment [5] were 0.06 nM and 0.07 nM, respectively. Besides, the binding result in experiment [4] is on record as “no binding”.

B10: mAb3 (antibody, V domains shown)
VH: B1 VH with F101G, L115M
VL: not shown
With B10, the “Fold Improvement” value in [6] worked out at 1.3 fold; in experiment [1], 4.8 fold; in experiment [8], 3.08 fold. Besides, the Kd in [3] turned out to be 0.9 nM. Besides, the concentration giving a half-maximal response (EC50) in experiment [7] turned out to be 0.11 nM; in [4] it was 1.27 nM.

B11: mAb1 (antibody, V domains shown)
VH: B1 VH with V54I, F55L, T57A, F101G
VL: not shown
notes: also called parental clone mAb1; anti-PD-L1 antibody mAb1
Take B11: the “Fold Improvement” value turned out to be 3.3 fold in experiment [6], 1.1 fold in experiment [1], 3.21 fold in [2] and 5.26 fold in experiment [8]. In addition, the concentration for a half-maximal effect (EC50 (read off the curve)) (in general, the concentration at which the effect is half-maximal) in experiment [9] was about 0.04 nM; in [10], about 0.1 nM. In addition, the Kd in [3] came out at 4.16 nM. In addition, the EC50 was 0.04 nM in experiment [7], 0.74 nM in experiment [4] and 0.09 nM in experiment [5].

B12: mAb28 (antibody, V domains shown)
VH: EVQLLESGGGLVQPGGSLRLSCAASGFTFSSYAMLWVRQAPGKGLEWVSAISNSGTYTYYADSVKGRFTISRDNSKNTLYLQMNSLRAEDTAVYYCARGLDFIVGYTGNDYWGQGTLVTVSS
VL: not shown
notes: also called parental clone mAb28; anti-PD-1 IgG1 antibody (mAb28)
In the case of B12, the concentration giving a half-maximal response (EC50) in experiment [11] turned out to be 1.48 nM; in experiment [14] it was 3.94 nM; in experiment [15] it was 0.814 nM. For the same molecule, the half-maximal effective concentration (EC50 (read off the curve)) in experiment [12] was about 0.3 nM; in experiment [17] it was about 0.6 nM; in experiment [19] it was about 0.4 nM. The results for the “Fold improvement over Parent” value in experiment [13], in experiment [16] and in experiment [20] were 5.8 fold, 43 fold and 0.2 fold, respectively. Besides, the equilibrium dissociation constant (Kd) in experiment [18] was 5.6 nM.

Values taken from patent US12503511 (COMPASS THERAPEUTICS, dated 2025).
